{"source": "patent US10472605B2", "about": "“Serum-free medium” (National University of Ireland, Galway, priority 2014, dated 2019)", "molecules": {"B1": {"name": "FGF4: fibroblast growth factor 4 (protein, UniProt P08620 31-206, looked up)", "Fibroblast growth factor 4": "APTAPNGTLEAELERRWESLVALSLARLPVAAQPKEAAVQSGAGDYLLGIKRLRRLYCNVGIGFHLQALPDGRIGGAHADTRDSLLELSPVERGVVSIFGVASRFFVAMSSKGKLYGSPFFTDECTFKEILLPNNYNAYESYKYPGMFIALSKNGKTKKGNRVSPTMKVTHFLPRL"}, "B2": {"name": "vitronectin: extra-cellular matrix attachment factor used to pre-coat flasks (protein, UniProt P04004 20-478, looked up)", "Vitronectin": "DQESCKGRCTEGFNVDKKCQCDELCSYYQSCCTDYTAECKPQVTRGDVFTMPEDEYTVYDDGEEKNNATVHEQVGGPSLTSDLQAQSKGNPEQTPVLKPEEEAPAPEVGASKPEGIDSRPETLHPGRPQPPAEEELCSGKPFDAFTDLKNGSLFAFRGQYCYELDEKAVRPGYPKLIRDVWGIEGPIDAAFTRINCQGKTYLFKGSQYWRFEDGVLDPDYPRNISDGFDGIPDNVDAALALPAHSYSGRERVYFFKGKQYWEYQFQHQPSQEECEGSSLSAVFEHFAMMQRDSWEDIFELLFWGRTSAGTRQPQFISRDWHGVPGQVDAAMAGRIYISGMAPRPSLAKKQRFRHRNRKGYRSQRGHSRGRNQNSRRPSRATWLSLFSSEESNLGANNYDDYRMDWLVPATCEPIQSVFFFSGDKYYRVNLRTRRVDTVDPPYPRSIAQYWLGCPAPGHL"}}, "key": {"MSC [1]": {"test_system": "MSC", "experiment": "Growth/proliferation of MSC isolated in 10% FBS and re-attached under serum-free conditions", "type": "cell-based", "settings": "5 ng/ml; over 3 passages, days 5, 10 and 15; fibronectin-coated", "procedure": "Tissue culture flasks were pre-coated with FN (black), HA (blue), VN (red) or LN (green) and cells were allowed to adhere in serum-free conditions. Cell numbers were obtained after 5 days. Controls include serum-free plating without the presence of an ECM attachment factor and 10% FBS (grey). Results are representative of 3 biological replicates with n=2;\nCells were then cultured in the presence of growth factors and passaged every 5 days. Controls include serum free plating without growth factors and 10% FBS. Results are representative of 3 biological replicates with n=2;\nCells were then cultured in serum-free media containing FGF2 (5 ng/ml) in the presence of PGE2, cholesterol or lipoprotein for 5 days. Controls include serum free plating without growth factors 10% FBS (A). Cells were then cultured in the presence of lipoprotein and passaged every 5 days for 3 passages, controls include serum free plating without lipoprotein (B). Results are representative of 3 biological replicates with n=2;\n(§1) Proliferation of the MSC attached in the presence of basic fibroblast growth factor (bFGF2, FGF2) was also assessed after 6 days.\nSerum-free basal medium formulation was selected based on the literature describing low-serum cell culture of dental pulp stem cells (Tarle et al., 2010). […]"}, "MSC [2]": {"test_system": "MSC", "experiment": "Attachment of MSC isolated in 10% FBS and re-attached under serum-free conditions", "type": "cell-based", "settings": "after 18 hours in a serum-free environment; vitronectin 0.5 μg/ml pre-coating", "excerpt": "Tissue culture flasks were pre-coated with fibronectin (FN; black), hylauronic acid (HA; blue), vitronectin (VN; red) or laminin (LN; green) and cells were allowed to adhere in serum-free conditions. Controls include serum-free plating without the presence of an extra-cellular matrix (ECM) attachment factor and 10% FBS (grey). Results are representative of 3 biological replicates with n=2;\nMSC were attached on tissue culture flasks in the presence of EGF (red) or on tissue culture plastic precoated with FN (purple) or in the presence of EGF on fibronectin coated plastic (green) and passaged every 3 days. Controls include serum free plating without the presence of an ECM attachment factor (blue) and 10% FBS (black). Results are representative of 3 biological replicates with n=2;\nas §1"}}}
{"molecule": "B1", "values": [{"measurement": "MSC proliferation in serum free medium", "setting": "MSC [1]", "result": "increased MSC proliferation"}]}
{"molecule": "B2", "values": [{"measurement": "MSC attachment", "setting": "MSC [2]", "result": "supported MSC attachment optimally"}]}
